Patent publication US6300088A, “Method of detecting prostate specific antigen” (Duke University, priority 1998, dated 2001)
No end group written: not given here.

What was measured:
[1] = mouse, in vivo, iv
Procedure: (§1) Plasma Elimination Studies--This procedure has been described in detail elsewhere. […] In brief, approximately 1.0 μg of radioiodinated protein or peptide was injected into the lateral tail vein of CD-1 mice. Blood samples of 25 μl were collected at timed intervals via retroorbital puncture. The initial time point, taken 5-10 seconds after injection, was considered to represent 100% radioactivity in circulation. Each preparation was studied at least in triplicate.

[2] = Plasma elimination studies in CD-1 mice (radioiodinated protein or peptide injected into the lateral tail vein)
Procedure: as §1

[3] = Tissue distribution of radioactivity in organs after the plasma elimination experiments (γ-counter); format: in vivo; settings: mouse, after plasma elimination experiment; FIG. 5
Excerpt: Each preparation was studied at least in triplicate.
Following the plasma elimination experiments the organs of the test mice were examined for radioactivity using a γ-counter.

In the case of “Ala-Pro-Leu-Ile-Leu-Ser-Arg (APLILSR; not fully specified; printed as Ala-Pro-Leu-Ile-Leu-Ser-Arg) [activation peptide]”, the “effect of excess unlabelled activation peptide on clearance rate / half-life” value [1] is reported as “not significantly affected” and the “plasma elimination half-life of the peptide” value [1] is reported as “less than 2 minutes”.

With “^125 I-α1 -ACT.cndot.PSA complexes: complex of prostate specific antigen with the protease inhibitor α1-antichymotrypsin” the “half-life of removal from the mouse circulation” value ([2]; i.v. lateral tail vein, labelled complex injected alone) was “approximately 20 minutes”, the “half life in mouse circulation on coinjection with excess unlabeled complex” value ([2]; i.v., coinjected with a large excess of unlabeled α1-ACT·PSA complexes) was “several hours” and the “half life of complex compared to native α1-ACT” value ([2]; mouse, i.v., FIG. 3) was “significantly reduced”.

B1: ^125 I-α1 -ACT: α1-antichymotrypsin, purified as previously described (Salvesen et al.) (protein, UniProt P01011 24-423, looked up)
Alpha-1-antichymotrypsin: HPNSPLDEENLTQENQDRGTHVDLGLASANVDFAFSLYKQLVLKAPDKNVIFSPLSISTALAFLSLGAHNTTLTEILKGLKFNLTETSEAEIHQSFQHLLRTLNQSSDELQLSMGNAMFVKEQLSLLDRFTEDAKRLYGSEAFATDFQDSAAAKKLINDYVKNGTRGKITDLIKDLDSQTMMVLVNYIFFKAKWEMPFDPQDTHQSRFYLSKKKWVMVPMMSLHHLTIPYFRDEELSCTVVELKYTGNASALFILPDQDKMEEVEAMLLPETLKRWRDSLEFREIGELYLPKFSISRDYNLNDILLQLGIEEAFTSKADLSGITGARNLAVSQVVHKAVLDVFEEGTEASAATAVKITLLSALVETRTIVRFNRPFLMIIVPTDTQNIFFMSKVTNPKQA
modifications: 125I label
With B1 the “half life in mouse circulation” value ([2]; i.v. lateral tail vein, injected alone, estimated) was “several hours” and the “organs with predominant radioactivity (tissue distribution)” value [3] was “bladder and kidney”.
